This is an account of results in patent US20230159662A1 (Kyowa Kirin, published 2023).

The target of this assay is human CD16a (Val type) stably expressed on NK-92 cells (NK-92/CD16 transfectant) (human, UniProt P08637 17-254). As to the kind of experiment: cell-based or functional assay.
human CD16a (Val type) stably expressed on NK-92 cells (NK-92/CD16 transfectant), sequence (P08637 17-254 F176V): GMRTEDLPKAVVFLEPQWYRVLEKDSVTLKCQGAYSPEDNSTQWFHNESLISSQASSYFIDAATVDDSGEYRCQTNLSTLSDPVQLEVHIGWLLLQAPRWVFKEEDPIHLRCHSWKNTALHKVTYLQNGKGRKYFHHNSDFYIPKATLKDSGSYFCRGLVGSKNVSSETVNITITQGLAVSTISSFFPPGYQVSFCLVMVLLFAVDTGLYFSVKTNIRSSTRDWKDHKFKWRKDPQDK

B1: human IgG1 anti-human CCR4 antibody (KM2160), S239D/K326L (antibody)
heavy: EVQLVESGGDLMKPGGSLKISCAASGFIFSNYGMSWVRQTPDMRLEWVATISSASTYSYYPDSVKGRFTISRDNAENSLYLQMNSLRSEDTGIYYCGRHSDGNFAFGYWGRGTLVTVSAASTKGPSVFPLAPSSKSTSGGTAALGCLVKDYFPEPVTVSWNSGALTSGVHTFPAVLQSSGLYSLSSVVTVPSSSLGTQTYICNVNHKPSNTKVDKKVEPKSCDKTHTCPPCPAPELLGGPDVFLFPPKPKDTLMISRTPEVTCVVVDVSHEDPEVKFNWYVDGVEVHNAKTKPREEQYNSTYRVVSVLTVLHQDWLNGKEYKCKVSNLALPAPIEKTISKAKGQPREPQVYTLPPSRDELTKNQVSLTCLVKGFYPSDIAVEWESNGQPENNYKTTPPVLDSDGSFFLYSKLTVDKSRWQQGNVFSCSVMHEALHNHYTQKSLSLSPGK
light: DVLMTQTPLSLPVSLGDQASISCRSSRNIVHINGDTYLEWYLQRPGQSPKLLIYKVSNRFSGVPDRFSGSGSGTDFTLKISRVEAEDLGVYYCFQGSLLPWTFGGGTRLEIRRTVAAPSVFIFPPSDEQLKSGTASVVCLLNNFYPREAKVQWKVDNALQSGNSQESVTEQDSKDSTYSLSSTLTLSKADYEKHKVYACEVTHQGLSSPVTKSFNRGEC
B1: the “relative ADCC activity (AAA = 100)” value was 113 relative, AAA at 0.1 µg/mL = 100.

B2: human IgG1 anti-human CCR4 antibody (KM2160), S239E/I332T (antibody)
heavy: not shown
light: DVLMTQTPLSLPVSLGDQASISCRSSRNIVHINGDTYLEWYLQRPGQSPKLLIYKVSNRFSGVPDRFSGSGSGTDFTLKISRVEAEDLGVYYCFQGSLLPWTFGGGTRLEIRRTVAAPSVFIFPPSDEQLKSGTASVVCLLNNFYPREAKVQWKVDNALQSGNSQESVTEQDSKDSTYSLSSTLTLSKADYEKHKVYACEVTHQGLSSPVTKSFNRGEC
As for B2, the “relative ADCC activity (AAA = 100)” value is 52 relative, AAA at 0.1 µg/mL = 100.

B3: human IgG1 anti-human CCR4 antibody (KM2160), S239E/I332Y (antibody)
heavy: not shown
light: DVLMTQTPLSLPVSLGDQASISCRSSRNIVHINGDTYLEWYLQRPGQSPKLLIYKVSNRFSGVPDRFSGSGSGTDFTLKISRVEAEDLGVYYCFQGSLLPWTFGGGTRLEIRRTVAAPSVFIFPPSDEQLKSGTASVVCLLNNFYPREAKVQWKVDNALQSGNSQESVTEQDSKDSTYSLSSTLTLSKADYEKHKVYACEVTHQGLSSPVTKSFNRGEC
As to B3, the “relative ADCC activity (AAA = 100)” value was 130 relative, AAA at 0.1 µg/mL = 100.

B4: human IgG1 anti-human CCR4 antibody (KM2160), S239D/K326E (antibody)
heavy: not shown
light: DVLMTQTPLSLPVSLGDQASISCRSSRNIVHINGDTYLEWYLQRPGQSPKLLIYKVSNRFSGVPDRFSGSGSGTDFTLKISRVEAEDLGVYYCFQGSLLPWTFGGGTRLEIRRTVAAPSVFIFPPSDEQLKSGTASVVCLLNNFYPREAKVQWKVDNALQSGNSQESVTEQDSKDSTYSLSSTLTLSKADYEKHKVYACEVTHQGLSSPVTKSFNRGEC
On to B4, for which the “relative ADCC activity (AAA = 100)” value is 147 relative, AAA at 0.1 µg/mL = 100.

B5: human IgG1 anti-human CCR4 antibody (KM2160), F243L/R292P/Y300L/V305I/P396L (antibody)
heavy: EVQLVESGGDLMKPGGSLKISCAASGFIFSNYGMSWVRQTPDMRLEWVATISSASTYSYYPDSVKGRFTISRDNAENSLYLQMNSLRSEDTGIYYCGRHSDGNFAFGYWGRGTLVTVSAASTKGPSVFPLAPSSKSTSGGTAALGCLVKDYFPEPVTVSWNSGALTSGVHTFPAVLQSSGLYSLSSVVTVPSSSLGTQTYICNVNHKPSNTKVDKKVEPKSCDKTHTCPPCPAPELLGGPSVFLLPPKPKDTLMISRTPEVTCVVVDVSHEDPEVKFNWYVDGVEVHNAKTKPPEEQYNSTLRVVSILTVLHQDWLNGKEYKCKVSNKALPAPIEKTISKAKGQPREPQVYTLPPSRDELTKNQVSLTCLVKGFYPSDIAVEWESNGQPENNYKTTPLVLDSDGSFFLYSKLTVDKSRWQQGNVFSCSVMHEALHNHYTQKSLSLSPGK
light: DVLMTQTPLSLPVSLGDQASISCRSSRNIVHINGDTYLEWYLQRPGQSPKLLIYKVSNRFSGVPDRFSGSGSGTDFTLKISRVEAEDLGVYYCFQGSLLPWTFGGGTRLEIRRTVAAPSVFIFPPSDEQLKSGTASVVCLLNNFYPREAKVQWKVDNALQSGNSQESVTEQDSKDSTYSLSSTLTLSKADYEKHKVYACEVTHQGLSSPVTKSFNRGEC
For B5, the “relative ADCC activity (AAA = 100)” value is -9 relative, AAA at 0.1 µg/mL = 100.

B6: human IgG1 anti-human CCR4 antibody (KM2160), S239E/K326I (antibody)
heavy: not shown
light: DVLMTQTPLSLPVSLGDQASISCRSSRNIVHINGDTYLEWYLQRPGQSPKLLIYKVSNRFSGVPDRFSGSGSGTDFTLKISRVEAEDLGVYYCFQGSLLPWTFGGGTRLEIRRTVAAPSVFIFPPSDEQLKSGTASVVCLLNNFYPREAKVQWKVDNALQSGNSQESVTEQDSKDSTYSLSSTLTLSKADYEKHKVYACEVTHQGLSSPVTKSFNRGEC
Consider B6, for which the “relative ADCC activity (AAA = 100)” value was 135 relative, AAA at 0.1 µg/mL = 100.

B7: human IgG1 anti-human CCR4 antibody (KM2160), S239D/L326I (as printed) (antibody)
heavy: not shown
light: DVLMTQTPLSLPVSLGDQASISCRSSRNIVHINGDTYLEWYLQRPGQSPKLLIYKVSNRFSGVPDRFSGSGSGTDFTLKISRVEAEDLGVYYCFQGSLLPWTFGGGTRLEIRRTVAAPSVFIFPPSDEQLKSGTASVVCLLNNFYPREAKVQWKVDNALQSGNSQESVTEQDSKDSTYSLSSTLTLSKADYEKHKVYACEVTHQGLSSPVTKSFNRGEC
As for B7, the “relative ADCC activity (AAA = 100)” value is 146 relative, AAA at 0.1 µg/mL = 100.

B8: human IgG1 anti-human CCR4 antibody (KM2160), S239E/K326L (antibody)
heavy: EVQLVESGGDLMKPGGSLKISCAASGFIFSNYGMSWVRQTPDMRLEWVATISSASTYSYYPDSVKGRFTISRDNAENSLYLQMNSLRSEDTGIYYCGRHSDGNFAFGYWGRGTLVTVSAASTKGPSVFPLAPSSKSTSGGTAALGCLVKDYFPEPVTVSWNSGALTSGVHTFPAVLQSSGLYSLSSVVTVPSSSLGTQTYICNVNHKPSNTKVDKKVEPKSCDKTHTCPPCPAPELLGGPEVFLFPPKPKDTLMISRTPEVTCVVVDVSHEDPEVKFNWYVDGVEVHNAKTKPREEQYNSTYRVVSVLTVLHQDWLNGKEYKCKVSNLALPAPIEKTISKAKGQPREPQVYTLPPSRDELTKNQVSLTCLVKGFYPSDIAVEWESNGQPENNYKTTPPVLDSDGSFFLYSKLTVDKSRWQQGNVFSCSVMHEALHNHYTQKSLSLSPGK
light: DVLMTQTPLSLPVSLGDQASISCRSSRNIVHINGDTYLEWYLQRPGQSPKLLIYKVSNRFSGVPDRFSGSGSGTDFTLKISRVEAEDLGVYYCFQGSLLPWTFGGGTRLEIRRTVAAPSVFIFPPSDEQLKSGTASVVCLLNNFYPREAKVQWKVDNALQSGNSQESVTEQDSKDSTYSLSSTLTLSKADYEKHKVYACEVTHQGLSSPVTKSFNRGEC
For B8, the “relative ADCC activity (AAA = 100)” value is 109 relative, AAA at 0.1 µg/mL = 100.

B9: human IgG1 anti-human CCR4 antibody (KM2160), S239E/I332E, CH of SEQ ID NO 176 (antibody)
heavy: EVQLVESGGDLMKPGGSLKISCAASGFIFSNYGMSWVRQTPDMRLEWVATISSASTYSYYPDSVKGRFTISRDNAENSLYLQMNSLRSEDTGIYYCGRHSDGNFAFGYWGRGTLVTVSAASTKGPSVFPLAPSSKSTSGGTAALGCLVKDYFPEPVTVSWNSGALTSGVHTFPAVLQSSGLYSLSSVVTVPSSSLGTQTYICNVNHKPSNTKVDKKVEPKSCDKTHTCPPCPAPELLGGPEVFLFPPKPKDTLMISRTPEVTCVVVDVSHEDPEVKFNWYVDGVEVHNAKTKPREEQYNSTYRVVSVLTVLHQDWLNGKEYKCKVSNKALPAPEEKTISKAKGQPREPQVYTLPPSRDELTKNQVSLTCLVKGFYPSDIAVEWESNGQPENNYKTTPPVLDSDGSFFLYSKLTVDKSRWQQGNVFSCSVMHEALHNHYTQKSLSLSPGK
light: DVLMTQTPLSLPVSLGDQASISCRSSRNIVHINGDTYLEWYLQRPGQSPKLLIYKVSNRFSGVPDRFSGSGSGTDFTLKISRVEAEDLGVYYCFQGSLLPWTFGGGTRLEIRRTVAAPSVFIFPPSDEQLKSGTASVVCLLNNFYPREAKVQWKVDNALQSGNSQESVTEQDSKDSTYSLSSTLTLSKADYEKHKVYACEVTHQGLSSPVTKSFNRGEC
With B9, the “relative ADCC activity (AAA = 100)” value was 153 relative, AAA at 0.1 µg/mL = 100.

B10: human IgG1 anti-human CCR4 antibody (KM2160), F243L/R292P/Y300L (antibody)
heavy: EVQLVESGGDLMKPGGSLKISCAASGFIFSNYGMSWVRQTPDMRLEWVATISSASTYSYYPDSVKGRFTISRDNAENSLYLQMNSLRSEDTGIYYCGRHSDGNFAFGYWGRGTLVTVSAASTKGPSVFPLAPSSKSTSGGTAALGCLVKDYFPEPVTVSWNSGALTSGVHTFPAVLQSSGLYSLSSVVTVPSSSLGTQTYICNVNHKPSNTKVDKKVEPKSCDKTHTCPPCPAPELLGGPSVFLLPPKPKDTLMISRTPEVTCVVVDVSHEDPEVKFNWYVDGVEVHNAKTKPPEEQYNSTLRVVSVLTVLHQDWLNGKEYKCKVSNKALPAPIEKTISKAKGQPREPQVYTLPPSRDELTKNQVSLTCLVKGFYPSDIAVEWESNGQPENNYKTTPPVLDSDGSFFLYSKLTVDKSRWQQGNVFSCSVMHEALHNHYTQKSLSLSPGK
light: DVLMTQTPLSLPVSLGDQASISCRSSRNIVHINGDTYLEWYLQRPGQSPKLLIYKVSNRFSGVPDRFSGSGSGTDFTLKISRVEAEDLGVYYCFQGSLLPWTFGGGTRLEIRRTVAAPSVFIFPPSDEQLKSGTASVVCLLNNFYPREAKVQWKVDNALQSGNSQESVTEQDSKDSTYSLSSTLTLSKADYEKHKVYACEVTHQGLSSPVTKSFNRGEC
For the molecule B10, the “relative ADCC activity (AAA = 100)” value is 3 relative, AAA at 0.1 µg/mL = 100.

B11: human IgG1 anti-human CCR4 antibody (KM2160), S239E/I332W (antibody)
heavy: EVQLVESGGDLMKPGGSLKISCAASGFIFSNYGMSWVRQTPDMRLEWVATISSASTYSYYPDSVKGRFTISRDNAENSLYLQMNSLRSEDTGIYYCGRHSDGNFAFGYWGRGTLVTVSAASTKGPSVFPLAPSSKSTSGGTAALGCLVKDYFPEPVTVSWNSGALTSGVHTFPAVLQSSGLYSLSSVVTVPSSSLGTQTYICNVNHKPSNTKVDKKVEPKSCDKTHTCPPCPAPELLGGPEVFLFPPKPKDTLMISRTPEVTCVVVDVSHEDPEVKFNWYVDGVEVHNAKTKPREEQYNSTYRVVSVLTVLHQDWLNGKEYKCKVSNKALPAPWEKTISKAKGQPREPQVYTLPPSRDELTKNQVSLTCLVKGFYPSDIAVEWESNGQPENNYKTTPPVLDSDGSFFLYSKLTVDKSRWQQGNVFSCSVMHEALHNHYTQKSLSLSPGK
light: DVLMTQTPLSLPVSLGDQASISCRSSRNIVHINGDTYLEWYLQRPGQSPKLLIYKVSNRFSGVPDRFSGSGSGTDFTLKISRVEAEDLGVYYCFQGSLLPWTFGGGTRLEIRRTVAAPSVFIFPPSDEQLKSGTASVVCLLNNFYPREAKVQWKVDNALQSGNSQESVTEQDSKDSTYSLSSTLTLSKADYEKHKVYACEVTHQGLSSPVTKSFNRGEC
For the molecule B11, the “relative ADCC activity (AAA = 100)” value is 44 relative, AAA at 0.1 µg/mL = 100.

B12: human IgG1 anti-human CCR4 antibody (KM2160), S239E/I332H (antibody)
heavy: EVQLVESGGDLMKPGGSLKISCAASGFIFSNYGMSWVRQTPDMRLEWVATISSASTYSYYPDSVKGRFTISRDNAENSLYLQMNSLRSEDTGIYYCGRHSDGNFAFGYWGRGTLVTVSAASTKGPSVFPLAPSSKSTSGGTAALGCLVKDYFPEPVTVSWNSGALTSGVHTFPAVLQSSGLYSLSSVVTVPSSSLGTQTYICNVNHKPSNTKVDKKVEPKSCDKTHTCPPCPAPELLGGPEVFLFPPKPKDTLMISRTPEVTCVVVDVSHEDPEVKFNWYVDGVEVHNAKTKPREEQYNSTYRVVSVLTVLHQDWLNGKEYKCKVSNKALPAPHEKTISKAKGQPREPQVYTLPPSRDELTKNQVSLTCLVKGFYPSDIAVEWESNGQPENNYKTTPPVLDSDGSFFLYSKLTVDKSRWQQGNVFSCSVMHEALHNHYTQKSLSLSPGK
light: DVLMTQTPLSLPVSLGDQASISCRSSRNIVHINGDTYLEWYLQRPGQSPKLLIYKVSNRFSGVPDRFSGSGSGTDFTLKISRVEAEDLGVYYCFQGSLLPWTFGGGTRLEIRRTVAAPSVFIFPPSDEQLKSGTASVVCLLNNFYPREAKVQWKVDNALQSGNSQESVTEQDSKDSTYSLSSTLTLSKADYEKHKVYACEVTHQGLSSPVTKSFNRGEC
Take B12: the “relative ADCC activity (AAA = 100)” value was 71 relative, AAA at 0.1 µg/mL = 100.

B13: human IgG1 anti-human CCR4 antibody (KM2160), printed as S239E/I332E, CH of SEQ ID NO 178 (antibody)
heavy: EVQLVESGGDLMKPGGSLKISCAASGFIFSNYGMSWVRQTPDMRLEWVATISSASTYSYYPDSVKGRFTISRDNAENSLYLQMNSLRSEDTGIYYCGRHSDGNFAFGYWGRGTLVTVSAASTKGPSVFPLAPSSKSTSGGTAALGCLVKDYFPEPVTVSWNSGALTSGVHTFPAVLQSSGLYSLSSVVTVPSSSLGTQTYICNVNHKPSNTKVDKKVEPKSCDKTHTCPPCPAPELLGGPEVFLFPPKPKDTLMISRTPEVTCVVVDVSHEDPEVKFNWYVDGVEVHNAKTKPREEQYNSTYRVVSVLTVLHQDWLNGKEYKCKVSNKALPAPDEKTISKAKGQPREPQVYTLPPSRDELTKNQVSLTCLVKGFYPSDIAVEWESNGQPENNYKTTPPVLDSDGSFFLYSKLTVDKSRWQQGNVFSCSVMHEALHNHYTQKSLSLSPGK
light: DVLMTQTPLSLPVSLGDQASISCRSSRNIVHINGDTYLEWYLQRPGQSPKLLIYKVSNRFSGVPDRFSGSGSGTDFTLKISRVEAEDLGVYYCFQGSLLPWTFGGGTRLEIRRTVAAPSVFIFPPSDEQLKSGTASVVCLLNNFYPREAKVQWKVDNALQSGNSQESVTEQDSKDSTYSLSSTLTLSKADYEKHKVYACEVTHQGLSSPVTKSFNRGEC
Take B13: the “relative ADCC activity (AAA = 100)” value was 90 relative, AAA at 0.1 µg/mL = 100.

B14: human IgG1 anti-human CCR4 antibody (KM2160), S239E/I332A (antibody)
heavy: not shown
light: DVLMTQTPLSLPVSLGDQASISCRSSRNIVHINGDTYLEWYLQRPGQSPKLLIYKVSNRFSGVPDRFSGSGSGTDFTLKISRVEAEDLGVYYCFQGSLLPWTFGGGTRLEIRRTVAAPSVFIFPPSDEQLKSGTASVVCLLNNFYPREAKVQWKVDNALQSGNSQESVTEQDSKDSTYSLSSTLTLSKADYEKHKVYACEVTHQGLSSPVTKSFNRGEC
On to B14, for which the “relative ADCC activity (AAA = 100)” value is 62 relative, AAA at 0.1 µg/mL = 100.

B15: human IgG1 anti-human CCR4 antibody (KM2160), S239E/K326E (antibody)
heavy: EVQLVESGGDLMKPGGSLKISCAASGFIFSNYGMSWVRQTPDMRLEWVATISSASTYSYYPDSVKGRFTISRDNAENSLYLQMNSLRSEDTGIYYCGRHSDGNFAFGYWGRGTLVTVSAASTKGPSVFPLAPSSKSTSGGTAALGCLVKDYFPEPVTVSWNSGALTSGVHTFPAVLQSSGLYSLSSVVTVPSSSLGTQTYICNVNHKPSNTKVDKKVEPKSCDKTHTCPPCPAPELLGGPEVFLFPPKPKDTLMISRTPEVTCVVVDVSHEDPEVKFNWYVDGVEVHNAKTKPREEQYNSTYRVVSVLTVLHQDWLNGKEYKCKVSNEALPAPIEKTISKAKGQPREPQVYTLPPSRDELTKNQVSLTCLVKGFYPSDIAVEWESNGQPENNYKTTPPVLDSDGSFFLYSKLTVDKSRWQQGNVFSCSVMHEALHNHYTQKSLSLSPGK
light: DVLMTQTPLSLPVSLGDQASISCRSSRNIVHINGDTYLEWYLQRPGQSPKLLIYKVSNRFSGVPDRFSGSGSGTDFTLKISRVEAEDLGVYYCFQGSLLPWTFGGGTRLEIRRTVAAPSVFIFPPSDEQLKSGTASVVCLLNNFYPREAKVQWKVDNALQSGNSQESVTEQDSKDSTYSLSSTLTLSKADYEKHKVYACEVTHQGLSSPVTKSFNRGEC
Consider B15, for which the “relative ADCC activity (AAA = 100)” value was 129 relative, AAA at 0.1 µg/mL = 100.

B16: human IgG1 anti-human CCR4 antibody (KM2160), S239E/I332L (antibody)
heavy: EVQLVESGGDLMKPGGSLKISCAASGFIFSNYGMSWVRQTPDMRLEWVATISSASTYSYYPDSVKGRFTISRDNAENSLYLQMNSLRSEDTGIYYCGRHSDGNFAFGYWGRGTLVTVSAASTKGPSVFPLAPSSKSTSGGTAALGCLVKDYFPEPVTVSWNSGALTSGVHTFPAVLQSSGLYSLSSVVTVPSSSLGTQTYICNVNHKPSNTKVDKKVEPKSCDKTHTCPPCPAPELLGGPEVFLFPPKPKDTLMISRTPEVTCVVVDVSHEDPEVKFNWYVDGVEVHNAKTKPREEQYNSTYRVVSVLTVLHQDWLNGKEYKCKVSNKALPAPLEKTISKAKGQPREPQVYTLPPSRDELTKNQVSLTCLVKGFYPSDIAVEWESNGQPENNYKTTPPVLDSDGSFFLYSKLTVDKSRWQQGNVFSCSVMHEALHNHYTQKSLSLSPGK
light: DVLMTQTPLSLPVSLGDQASISCRSSRNIVHINGDTYLEWYLQRPGQSPKLLIYKVSNRFSGVPDRFSGSGSGTDFTLKISRVEAEDLGVYYCFQGSLLPWTFGGGTRLEIRRTVAAPSVFIFPPSDEQLKSGTASVVCLLNNFYPREAKVQWKVDNALQSGNSQESVTEQDSKDSTYSLSSTLTLSKADYEKHKVYACEVTHQGLSSPVTKSFNRGEC
Consider B16, for which the “relative ADCC activity (AAA = 100)” value is 57 relative, AAA at 0.1 µg/mL = 100.

B17: human IgG1 anti-human CCR4 antibody (KM2160), S239E/I332F (antibody)
heavy: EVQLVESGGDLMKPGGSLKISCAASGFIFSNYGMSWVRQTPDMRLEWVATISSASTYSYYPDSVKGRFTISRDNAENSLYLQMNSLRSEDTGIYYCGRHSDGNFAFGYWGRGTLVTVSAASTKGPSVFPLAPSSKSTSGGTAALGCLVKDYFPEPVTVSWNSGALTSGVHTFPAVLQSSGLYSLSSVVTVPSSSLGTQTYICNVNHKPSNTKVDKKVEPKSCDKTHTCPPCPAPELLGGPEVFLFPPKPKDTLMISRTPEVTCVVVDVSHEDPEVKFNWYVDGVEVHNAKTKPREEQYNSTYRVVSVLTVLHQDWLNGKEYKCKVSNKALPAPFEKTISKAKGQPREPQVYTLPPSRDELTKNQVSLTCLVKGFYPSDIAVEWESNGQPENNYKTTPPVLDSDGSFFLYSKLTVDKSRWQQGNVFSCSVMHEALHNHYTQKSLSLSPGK
light: DVLMTQTPLSLPVSLGDQASISCRSSRNIVHINGDTYLEWYLQRPGQSPKLLIYKVSNRFSGVPDRFSGSGSGTDFTLKISRVEAEDLGVYYCFQGSLLPWTFGGGTRLEIRRTVAAPSVFIFPPSDEQLKSGTASVVCLLNNFYPREAKVQWKVDNALQSGNSQESVTEQDSKDSTYSLSSTLTLSKADYEKHKVYACEVTHQGLSSPVTKSFNRGEC
For the molecule B17, the “relative ADCC activity (AAA = 100)” value is 34 relative, AAA at 0.1 µg/mL = 100.

B18: human IgG1 anti-human CCR4 antibody (KM2160), S239E/K326T (antibody)
heavy: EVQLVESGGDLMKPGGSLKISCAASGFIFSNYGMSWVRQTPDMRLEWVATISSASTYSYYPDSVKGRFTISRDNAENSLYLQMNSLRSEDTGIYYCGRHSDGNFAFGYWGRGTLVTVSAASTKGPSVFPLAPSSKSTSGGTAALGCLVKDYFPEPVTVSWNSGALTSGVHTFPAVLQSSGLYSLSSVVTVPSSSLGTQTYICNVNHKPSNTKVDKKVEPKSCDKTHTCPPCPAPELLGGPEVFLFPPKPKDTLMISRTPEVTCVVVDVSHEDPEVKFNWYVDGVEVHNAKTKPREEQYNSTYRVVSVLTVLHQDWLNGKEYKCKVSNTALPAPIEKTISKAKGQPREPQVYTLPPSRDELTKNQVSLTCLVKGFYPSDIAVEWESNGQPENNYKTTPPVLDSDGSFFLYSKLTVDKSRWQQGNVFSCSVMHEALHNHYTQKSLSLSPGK
light: DVLMTQTPLSLPVSLGDQASISCRSSRNIVHINGDTYLEWYLQRPGQSPKLLIYKVSNRFSGVPDRFSGSGSGTDFTLKISRVEAEDLGVYYCFQGSLLPWTFGGGTRLEIRRTVAAPSVFIFPPSDEQLKSGTASVVCLLNNFYPREAKVQWKVDNALQSGNSQESVTEQDSKDSTYSLSSTLTLSKADYEKHKVYACEVTHQGLSSPVTKSFNRGEC
As for B18, the “relative ADCC activity (AAA = 100)” value was 132 relative, AAA at 0.1 µg/mL = 100.
